Reference: US20130225479A1, “Methods and Compositions for Treating Inflammation” (The University of North Carolina at Chapel Hill, priority 2010, published 2013)

Columns and labels:
[1] = target: T1, human NLRP1 (full-length) (human, UniProt Q9C000 1-1473, myc or V5 epitope tags in some assays (letters not given, left out); 35S-methionine label in the GST binding assay); assay: GST binding assay on glutathione beads with in vitro translated 35S-labeled protein, phosphorimager
T1 construct: also called NLRP1-myc; NLRP1-V5
T1 sequence: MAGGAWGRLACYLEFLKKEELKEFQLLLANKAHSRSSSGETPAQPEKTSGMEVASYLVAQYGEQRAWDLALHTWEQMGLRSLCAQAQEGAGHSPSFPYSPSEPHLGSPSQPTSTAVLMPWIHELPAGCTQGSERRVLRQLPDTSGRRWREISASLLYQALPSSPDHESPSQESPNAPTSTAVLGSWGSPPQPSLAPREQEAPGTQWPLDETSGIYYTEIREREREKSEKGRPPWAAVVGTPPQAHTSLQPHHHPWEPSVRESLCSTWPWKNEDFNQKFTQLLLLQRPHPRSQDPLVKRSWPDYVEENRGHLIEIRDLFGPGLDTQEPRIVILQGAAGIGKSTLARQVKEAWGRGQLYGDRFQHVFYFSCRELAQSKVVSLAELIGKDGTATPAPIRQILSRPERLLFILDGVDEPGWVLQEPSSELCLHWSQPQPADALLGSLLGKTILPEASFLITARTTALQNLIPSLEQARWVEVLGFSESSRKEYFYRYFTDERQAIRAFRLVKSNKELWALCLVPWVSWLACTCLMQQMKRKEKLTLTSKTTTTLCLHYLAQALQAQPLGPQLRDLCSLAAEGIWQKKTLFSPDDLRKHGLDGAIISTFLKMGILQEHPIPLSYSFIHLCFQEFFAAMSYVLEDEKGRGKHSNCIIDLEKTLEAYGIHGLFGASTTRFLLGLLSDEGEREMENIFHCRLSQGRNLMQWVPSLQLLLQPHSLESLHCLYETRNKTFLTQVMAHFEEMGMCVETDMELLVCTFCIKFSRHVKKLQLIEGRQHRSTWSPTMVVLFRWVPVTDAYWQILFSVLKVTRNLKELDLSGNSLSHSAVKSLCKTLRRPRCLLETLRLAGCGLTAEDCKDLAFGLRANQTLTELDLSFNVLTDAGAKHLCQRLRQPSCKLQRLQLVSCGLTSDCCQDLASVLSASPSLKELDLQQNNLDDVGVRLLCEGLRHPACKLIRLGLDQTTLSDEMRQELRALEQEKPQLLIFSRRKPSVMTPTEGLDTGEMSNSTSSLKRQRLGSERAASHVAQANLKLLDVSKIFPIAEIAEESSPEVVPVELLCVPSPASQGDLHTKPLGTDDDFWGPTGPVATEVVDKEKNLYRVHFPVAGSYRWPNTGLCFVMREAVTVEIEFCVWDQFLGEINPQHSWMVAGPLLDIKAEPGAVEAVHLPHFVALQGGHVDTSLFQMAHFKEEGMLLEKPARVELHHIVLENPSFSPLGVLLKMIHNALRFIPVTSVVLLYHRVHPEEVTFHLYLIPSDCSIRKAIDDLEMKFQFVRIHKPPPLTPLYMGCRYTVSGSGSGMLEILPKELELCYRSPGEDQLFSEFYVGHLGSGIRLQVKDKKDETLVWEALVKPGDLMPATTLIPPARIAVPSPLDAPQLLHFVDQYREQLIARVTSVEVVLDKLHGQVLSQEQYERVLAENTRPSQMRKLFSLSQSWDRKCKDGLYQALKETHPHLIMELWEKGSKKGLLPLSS

NLRP1 = target: T2, NLRP1 (Homo sapiens, UniProt Q9C000); assay: GST binding assay with 35S-methionine-labeled NLRP1; settings: purified GST-Orf63 on glutathione beads
T2 construct: host or cells: cell-free coupled transcription/translation
T2 sequence (Q9C000 1-1473): T1 sequence
Experimental: (§1) In-vitro transcription/translation: [^35S]-methionine (Perkin-Elmer) labeled NLRP1, NLRP3 and control luciferase proteins were prepared using TnT T7 Quick Coupled Transcription/Translation System (Promega) according to manufacturer's instructions. pcDNA3-NLRP1 and pcDNA3-NLRP3 plasmids were used for the transcription/translation reaction.
(§2) GST binding Assay: Expression and purification of GST fusion proteins were performed as previously described (29) and equal amounts of GST and GST-Orf63 were bound to glutathione beads (29). Equivalent amounts (1×10^5 cpm) of ^35S-methionine labeled NLRP1, NLRP3 and luciferase proteins were incubated with the GST and GST-Orf63 bound protein in NETN+ buffer plus protease inhibitors for an hour at 4° C. NETN+ buffer comprised of 20 mM Tris (pH 7.5), 100 mM NaCl, 1 mM EDTA, 0.1% NP-40, 1 mM DTT. The bound complexes were washed five times (5 minute washes) in NETN+ buffer. The samples were subjected to SDS-PAGE. The gel was fixed, dried and exposed to a phosphoimager.

NLRP3 = target: T3, NLRP3 (Homo sapiens, UniProt Q96P20); assay: GST binding assay with 35S-methionine-labeled NLRP3; settings: purified GST-Orf63 on glutathione beads
T3 construct: primers designed to the open reading frames of procaspase-1, pro-IL-1beta, NOD1, NOD2, and NLRP3; expressed in transfected cells; host or cells: 293T
T3 sequence (Q96P20 whole entry): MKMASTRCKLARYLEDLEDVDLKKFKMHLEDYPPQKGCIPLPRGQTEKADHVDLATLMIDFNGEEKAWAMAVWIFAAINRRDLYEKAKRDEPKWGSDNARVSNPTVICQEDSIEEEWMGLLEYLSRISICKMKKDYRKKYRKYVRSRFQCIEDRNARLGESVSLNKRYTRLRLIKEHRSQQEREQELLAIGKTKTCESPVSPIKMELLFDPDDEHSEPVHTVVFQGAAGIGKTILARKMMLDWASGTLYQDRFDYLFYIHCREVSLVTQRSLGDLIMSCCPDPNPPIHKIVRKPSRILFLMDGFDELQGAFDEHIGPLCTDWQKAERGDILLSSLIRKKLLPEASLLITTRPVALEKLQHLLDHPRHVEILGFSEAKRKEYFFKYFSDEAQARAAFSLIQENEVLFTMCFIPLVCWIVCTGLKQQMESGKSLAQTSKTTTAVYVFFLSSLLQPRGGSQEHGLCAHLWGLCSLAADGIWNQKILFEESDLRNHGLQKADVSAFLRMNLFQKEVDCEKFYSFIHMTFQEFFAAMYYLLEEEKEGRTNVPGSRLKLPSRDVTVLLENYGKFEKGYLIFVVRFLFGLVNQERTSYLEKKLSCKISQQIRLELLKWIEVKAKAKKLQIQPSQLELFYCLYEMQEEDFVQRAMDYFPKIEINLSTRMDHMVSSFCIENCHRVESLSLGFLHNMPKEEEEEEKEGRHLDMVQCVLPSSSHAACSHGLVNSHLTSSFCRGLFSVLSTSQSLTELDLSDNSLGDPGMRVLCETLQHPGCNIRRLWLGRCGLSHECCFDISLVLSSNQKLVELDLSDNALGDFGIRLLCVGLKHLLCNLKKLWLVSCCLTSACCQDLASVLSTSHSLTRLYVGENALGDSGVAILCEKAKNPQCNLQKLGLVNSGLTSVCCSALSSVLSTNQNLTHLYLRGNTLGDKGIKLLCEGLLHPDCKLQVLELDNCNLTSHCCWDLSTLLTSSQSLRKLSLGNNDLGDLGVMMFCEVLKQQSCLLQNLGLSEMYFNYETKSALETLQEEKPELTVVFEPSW
Experimental: as §1, §2

B1: GST-Orf63 (other)
chain: MDGTDALEKLTKGLSGGGGSLHQTKLLMEFQLRGLPVPALLNSSTTEQFLNTVAQLPTDLSKFIRDYRVFALVRAAYFLEPPSSIDPLEAARALGRLVDILSSQPPQNTAPAQPPTSDDTLNNCTLLKLLAHYADQIAGFKTPALPPVPPGIIGLFTCVEQMYHACFQKYWAAALPPMWILTYDPPTSPLQDWLIVAYGNKEGLLLPSGIPSEEVLAKTLVTEHHELFVSRSNSTETAVTMPVSKERALAIYRVFAKGEVVAENTPILAFTDVELSTLKPHYLFIYDFIIEALCKSYTYSCTQARLESFLSRGIDFMTDLGQYLDTATSGKQQLTHSQIKEIKYRLLSCGLSASACDVFRTVIMTLPYRPTPNLANLSTFMGMVHQLTMFGHYFYRCLGSYSPTGLAFTELQKILTRASAEQTERNPWRHPGISDIPLRWKISRALAFFVPPAPINTLQRVYAALPSQLMRAIFEISVKTTWGGAVPANLARDIDTGPNTQHISSTPPPTLKDVETYCQGLRVGDTEYDEDIVRSPLFADAFTKSHLLPILREVLENRLQKNRALFQIRWLIIFAAEAATGLIPARRPLARAYFHIMDILEERHSQDALYNLLDCIQELFTHIRQAVPDAQCPHAFLQSLFVFQFRPFVLKHQQGVTLFLDGLQTSLPPVISLANLGDKLCRLEFEYDSEGDFVRVPVAPPEQPPHVHLSHFKKTIQTIEQATREATVAMTTIAKPIYPAYIRLLQRLEYLNRLNHHILRIPFPQDALSELQETYLAAFARLTKLAADAANTCSYSLTKYFGVLFQHQLVPTAIVKKLLHFDEAKDTTEAFLQSLAQPVVQGQRQGAAGGSGVLTQKELELLNKINPQFTDAQANIPPSIKRSYSNKYDVPEVSVDWETYSRSAFEAPDDELRFVPLTLAGLRKLFVE
modifications: N-terminal GST fusion and C-terminal FLAG tag are not carried by the letters
notes: also called GST-tagged Orf63; purified GST-Orf63 protein; not shown: N-terminal GST of the pGex5p-1 vector with its protease-site linker; C-terminal FLAG tag
[1]
  binding result: binds

B2: GST-Orf63: purified GST-tagged Orf63 fusion protein (protein)
chain: B1 chain
modifications: left off: a dimerising Fc or GST; small tags and cut ends
notes: purified GST-tagged Orf63 fusion protein
NLRP1
  binding of 35S-methionine-labeled NLRP1: bound
NLRP3
  binding of 35S-methionine-labeled NLRP3: bound
